Experimental data: the RNAGym collection of RNA variant scans (doi:10.7554/elife.80360)

B1: HDV Ribozyme (parent)
chain: GGCCGGCAUGGUCCCAGCCUCCUCGCUGGCGCCGGCUGGGCAACAUUCCGAGGGGACCGUCCCCUCGGUAAUGGCGAAUGGGACCCA

Variants of: B1
Assay: self-cleavage, relative activity (ratio to wild type); higher = more cleavage; co-transcriptional

Variant	self-cleavage
U12C G59A	0.185
U12C C57A	0.268
C13A G39C	0.0554
C13G A78G	0.111
C13G A78U	0.185
C13A G81C	0
C13U G82A	0.997
U12G G80C	0.0791
C13U C75U	0.0314
C13U C75A	0.148
C13A G59C	0.237
G11U G81U	0.138
U12A G34A	0.0378
U12G U47A	0.776
C13A A83U	0.142
C13A C58G	0.0639
C13A C58A	0.155
U12A G39A	0.225
C13U G34A	0.0875
U12A U65G	0
C13U G35U	0.163
C13U G35A	0.272
C13U G35C	0.166
U12G U46G	0.692

Variant	self-cleavage
U12G U46A	0.332
U12A C21A	0.0678
U12G C15G	0
C13A C33G	0.175
U12G C30G	0
U12A G68A	0.155
U12A G68U	0.312
U12C C32A	0.256
U12C G80U	0.18
U12C G80C	0.104
U12C G80A	0.243
U12A G54U	0.415
C13U G39U	0.495
U12G U20A	0.0573
C13G C19G	0.0791
U12G U69A	0.997
C13A A45G	0.158
U12G A42G	0.369
U12G A42U	0.415
U12C C33A	0.0386
C13U C15A	0.482
C13G G38C	0.0504
G11U U47A	0.397
U12G G68U	0.779

Variant	self-cleavage
U12A G81A	0.0554
U12G G17U	0.475
U12A G38A	0
U12A G38C	0.0489
U12C C86U	0.578
U12G C75A	0
U12A G74U	0.101
U12C G39U	0.0723
U12C G34C	0.115
U12C G28C	0
U12C G28A	0.0707
U12G A45G	0.959
U12A C36U	0.0678
C13G G52C	0.0475
C13G G52A	0.125
U12A C62A	0.458
U12A C62G	0.133
U12A A42C	0.147
U12A A42U	0.119
U12A A42G	0.256
U12C G40C	0.0405
C13A A77G	0
C13A A77C	0.0462
C13A C62G	0.287

Variant	self-cleavage
C13G C63G	0.133
U12A U37G	0.0536
U12A G29C	0.0386
C13G C36U	0.0369
C13G C36A	0.0449
C13G U69G	0.111
C13A C85A	0.19
U12G G52C	0.937
C13U C30A	0.102
U12G G50A	0.787
C13G C18U	0.0875
C13G C18G	0.138
U12C G54C	0.356
C13A C30G	0.0282
C13A C30A	0.0594
U12A A83G	0.302
C13G C86U	0.151
U12A C58A	0.312
U12A C58G	0.383
U12C G35C	0.0923
C13G A56C	0.0489
C13G G53C	0.123
U12C G17A	0.312
U12A G53U	0.318

Variant	self-cleavage
C13G G67U	0.101
U12C U72C	0.196
C13G G74C	0.128
C13A C14U	0.18
C13A C14G	0.0978
G11U U46C	0.135
U12A C32A	0.131
U12A C32G	0.225
U12C C64G	0.308
U12A C48G	0.415
C13G C26G	0.0978
C13G C26A	0.35
C13G G76A	0
G11U U27G	0.353
C13A U79A	0.119
U12G C14U	1.2
C13U C86G	0.692
C13U G68A	0.502
U12G U79G	0.639
U12G U79A	0.939
U12A C66G	0.375
U12G A16U	0.795
U12G A16C	0.831
U12C U23A	0.0594

Variant	self-cleavage
C13G U37A	0.17
U12A C49A	0.128
U12A C57A	0.256
U12A C57U	0.246
U12G C33G	0
C13U C57U	0.853
U12G A56C	0.831
C13A A42G	0.142
C13A A42U	0.0845
C13U G67U	0.712
C13A G53C	0.133
U12C G25U	0.0369
G11U U12C	0.125
G11U U12G	0.199
C13U G50U	0.642
C13A A43U	0.154
C13G C21G	0.0723
C13G C21U	0.141
U12A C64A	0.26
U12A C64U	0.178
U12A G80U	0.0968
U12C U47C	0.185
C13A C63A	0.155
U12A A43U	0.147

Variant	self-cleavage
C13A G50C	0.283
C13A G76A	0.199
C13A C26G	0.657
C13A C26A	0.623
C13G G59U	0.0811
C13G G59A	0.148
C13G G25A	0
U12C C85G	0.447
U12C U60G	0.399
U12C U60C	0.594
U12A U69G	0.795
U12A U69C	0.35
U12C A16C	0.302
U12C A16U	1.05
U12C C30A	0.193
U12C C30U	0.156
C13U C61U	0.77
C13U C61A	0.47
C13A U65G	0.208
C13G U27C	0.262
C13U G80U	0.185
U12G C24G	0.136
U12G C64U	0.914
C13G C61G	0.0852

Variant	self-cleavage
U12G C44U	0.598
U12G A70U	1.02
C13G C49U	0
C13G U65A	0.101
C13G U65C	0.095
U12C G82C	0.0504
C13A C24U	0.145
U12G U65A	1.06
U12C C48U	0.534
C13G G39A	0.0332
U12G C66A	0.923
U12G A51U	1.13
U12A G52A	0.364
C13A G52U	0.225
U12C A71C	0.0831
U12C A71G	0.287
C13U A83G	0.122
C13U A83U	0.185
U12C C61G	0.32
U12C C61U	0.404
C13U G73C	0.123
C13A C86U	0.242
U12A C18G	0.0405
C13U A78U	0

Variant	self-cleavage
C13G A83C	0.222
U12G C41U	0.982
C13U C14A	0.155
C13U C14G	0.391
C13G G82C	0.582
C13G G82U	0.0361
U12C C36G	0.128
C13U C63A	0.542
G11U U72C	0.231
U12C G53C	0.332
G11U U65A	0.321
C13G C64G	0.138
U12C A83G	0.85
U12C A83C	0.166
U12A G82A	0.0489
U12A C24A	0.104
U12A C44A	0
U12A C44U	0
C13U C32A	0.172
U12G C21U	0.123
C13G C33G	0.0462
C13G U72A	0.0536
U12C A77U	0.289
U12C A77G	0.302

Variant	self-cleavage
C13U G76C	0.772
C13U G40U	0.117
C13U G40C	0.0739
C13U G53A	0.77
U12G G34A	0.0791
U12A C15U	0.138
C13U A16C	0.8
U12C U46A	0
U12C U46G	0.0665
U12C U20A	0.0723
C13A A51U	0.172
G11U G80A	0.136
U12A G59A	0.172
C13U A45C	0.365
U12A G55A	0.415
U12A G55U	0.185
U12A C63U	0.453
U12A C63A	0.519
U12G A83U	0.867
U12A C41U	0.147
C13A A56C	0.156
C13G G29C	0.0415
C13A G17U	0.169
U12G G38U	0.0755

Variant	self-cleavage
U12G G38C	0.178
U12G C32U	0.399
U12G C32A	0.0639
U12G C58G	0.499
U12G C58U	0.751
C13G C24U	0.0504
C13G C24A	0.0594
C13G U46C	0.18
C13G U46G	0.0554
U12G C13A	0.415
C13G A51C	0.0723
U12G A77C	0
C13A G28A	0.0875
C13A G28U	0.172
C13G A70U	0.123
U12A G17A	0.19
U12C A42C	0.0489
C13A A16U	0.536
C13A C61A	0.163
C13A C61G	0.0959
U12G G55U	0.748
U12G C57U	0.831
C13G G17A	0.0652
U12C	0.399

Variant	self-cleavage
U12G	0.922
U12A	0.309
U12C G73U	0.0811
C13G A45U	0.0346
U12C C41A	0.388
U12C C41U	0.415
U12C C49G	0.199
U12C C49U	0.166
U12C C49A	0.322
C13U G31U	0.185
U12G G59U	0.973
U12C C84G	0.391
C13G U23A	0.151
C13G U23C	0
C13A C57A	0.185
U12A U23A	0.192
U12A A70C	0.332
U12C G52C	0.287
U12C C22G	0
U12G U37A	0.0554
C13A G29C	0
C13U G59U	0.831
C13U G59C	0.587
C13U G52U	0.394

Variant	self-cleavage
C13U G52A	0.682
C13U G17U	0.612
C13U G17A	0.623
U12A A51G	0.196
C13A G35U	0.125
C13A U23A	0.138
C13A U23C	0.271
U12A C86U	0.178
C13U G28C	0
C13G U60G	0
C13G G50U	0.0426
C13G C62A	0.0692
U12C C58A	0.475
C13A G68U	0.125
C13A G31C	0
C13A G31A	0.0594
U12G G25U	0.0573
C13G G80A	0
C13G G80C	0.0997
C13G G80U	0.0475
C13A U37C	0.131
U12C A70G	0.692
U12G C62G	0.437
U12G U23G	0.256

Variant	self-cleavage
U12C G76A	0.344
U12C G76C	0.364
U12A C19U	0.0831
U12G C49A	0.935
U12G C85G	0.369
U12A A16C	0.499
C13A C18A	0.169
C13A C41G	0.0504
C13G A71G	0
C13G A71U	0
U12C G55C	0.447
C13G C22G	0.131
C13G C22A	0.0361
C13A A71G	0
C13A A71C	0.135
C13U C66A	0.54
U12A U72C	0.277
C13U G55U	0.598
C13U G81C	0.249
C13A C49A	0.0489
G11U U20G	0.0791
C13A A70G	0.166
